Reference: PMC3857803

Biological target: anti-METH single chain antibody fragment scFv6H4
Assay: crystal structure; apo scFv6H4, hanging drop; protein 14 mg/ml in 5 mM HEPES, 100 mM NaCl, 1 mM NaN3, pH 8.0; reservoir 1.6 M ammonium sulfate, 240 mM imidazole malate, pH 8.0; space group P2(1)3, one molecule in the asymmetric unit; trimer formed by the crystallographic 3-fold axis, with a Ni2+ ion and a sulfate on the axis

stoichiometry N: 3
B1: anti-METH single chain antibody fragment scFv6H4 (scFv, V domains shown)
VH: EVQLQESGPSLVKPSQTLSLTCSVTGDSVTSGYWSWIRQFPGNKLDYMGYISYRGSTYYNPSLKSRISITRDTSKNQVYLQLKSVSSEDTATYYCSYFDSDDYAMEYWGQGTSVTVSG
VL: QIVLTQSPAIMSASPGEKVTLTCSASSSVSSSHLYWYQQKPGSSPKLWIYSTSNLASGVPARFSGSGSGTSYSLTISSMEAEDAASYFCHQWSSFPFTFGSGTKLEIK
